Experiment [1] has as its target T1, mouse PD-L1-His (mouse, UniProt Q9EP73 19-237).
T1 construct: Bought recombinant protein; also called mPD-L1; recombinant mouse PD-L1-His; not shown: His tag
Briefly: monoclonal phage ELISA.

A further experiment has as its target T2, human B7-H3 (human, UniProt Q5ZPR3 29-461, limits assumed).
T2 sequence (looked up): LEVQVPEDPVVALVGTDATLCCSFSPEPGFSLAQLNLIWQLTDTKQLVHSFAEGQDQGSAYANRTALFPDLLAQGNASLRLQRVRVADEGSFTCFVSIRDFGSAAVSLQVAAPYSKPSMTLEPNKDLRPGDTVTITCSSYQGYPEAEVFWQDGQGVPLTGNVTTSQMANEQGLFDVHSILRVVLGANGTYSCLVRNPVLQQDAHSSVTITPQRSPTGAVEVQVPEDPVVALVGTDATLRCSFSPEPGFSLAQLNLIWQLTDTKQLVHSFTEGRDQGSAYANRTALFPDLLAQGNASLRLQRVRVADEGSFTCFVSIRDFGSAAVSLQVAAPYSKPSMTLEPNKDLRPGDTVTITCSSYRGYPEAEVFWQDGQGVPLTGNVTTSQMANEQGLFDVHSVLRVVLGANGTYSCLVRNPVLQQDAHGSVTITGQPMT
Put plainly: ELISA on coated human B7-H3.

In experiment [2] the target is T3, mouse PD-L1 on murine melanoma cell line B8979HC (mouse, UniProt Q9EP73 19-290).
T3 construct: whole, on cells; also called native PD-L1; mouse antigen
T3 sequence (Q9EP73 19-290): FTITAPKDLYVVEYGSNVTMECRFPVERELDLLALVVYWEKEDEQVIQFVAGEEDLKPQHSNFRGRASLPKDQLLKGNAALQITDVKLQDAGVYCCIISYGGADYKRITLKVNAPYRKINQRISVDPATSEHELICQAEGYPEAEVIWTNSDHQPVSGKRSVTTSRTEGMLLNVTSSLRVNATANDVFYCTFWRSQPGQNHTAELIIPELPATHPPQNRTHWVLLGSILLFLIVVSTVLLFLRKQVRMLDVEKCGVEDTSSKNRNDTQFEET
Put plainly: flow cytometry on murine melanoma cells B8979HC (column 'Mouse').

The target in experiment [3] is T1, mouse PD-L1-His. Briefly: monoclonal phage ELISA on coated antigen, detected with anti-M13-HRP. How it is done:
(§1) The phage ELISA was performed as previously described (Feng et al., Antib Ther 2019; 2(1):1-11). Briefly, a Nunc 96-well Maxisorp plate was coated with 5 μg/ml antigenic proteins, including mouse PD-L1-His, mouse PD-L1-hFc, human PD-L1-His, human PD-L1-hFc, and the irrelevant antigen human IgG and PBS in 50 μl PBS per well overnight at 4° C. The plate was blocked with 2% BSA in PBS for 1 hour at room temperature. Pre-blocked phage supernatant was then added into the plate. The binding activity was determined with a horseradish peroxidase (HRP)-conjugated mouse anti-M13 antibody (GE Healthcare).
For orientation: An ELISA detects its analyte on a solid surface through an enzyme-linked reagent.

For a further experiment, the target named is T4, mouse PD-L1-hFc (mouse, UniProt Q9EP73 19-237, limits assumed).
T4 construct: also called mPD-L1 hFc-tag format; not shown: human Fc tag (hFc)
T4 sequence (Q9EP73 19-237 limits assumed): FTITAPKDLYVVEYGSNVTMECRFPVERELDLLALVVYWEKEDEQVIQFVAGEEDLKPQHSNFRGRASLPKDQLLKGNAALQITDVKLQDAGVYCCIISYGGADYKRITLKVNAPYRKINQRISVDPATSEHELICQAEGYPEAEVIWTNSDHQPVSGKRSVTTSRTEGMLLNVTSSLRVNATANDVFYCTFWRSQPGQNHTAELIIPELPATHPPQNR
The description is as above. As for the experimental part: as §1

For experiment [4], the target named is T5, peptide #19 of the hPD-L1 ECD peptide array (human).
T5 construct: 18-mer synthetic peptide from human PD-L1
T5 peptide: TTNSKREEKLFNVTSTLR
Briefly: peptide-scanning ELISA on 24 coated hPD-L1 ECD peptides, detected with anti-flag-HRP. How it is done:
To predict the binding epitope of anti-PD-L1 nanobodies, a total of 24 peptides were designed based on the hPD-L1 ECD amino acid sequence. Each synthesized peptide is 18 amino acids in length with 9 amino acids of overlap, which allows the minimum antigenic region of hPD-L1 ECD recognized by each VNAR to be narrowed down by step-by-step peptide mapping onto a 9-mer peptide epitope. The ELISA was performed as previously described. In brief, the 24 peptides were coated into individual wells of a 96-well Maxisorp plate. […] The binding activity was determined by ODA450.

The target of experiment [5] is T6, human PD-L1-His (human, UniProt Q9NZQ7 19-238).
T6 construct: also called hPD-L1-His; hPD-L1 His-tag format; not shown: His tag
T6 sequence (Q9NZQ7 19-238 limits assumed): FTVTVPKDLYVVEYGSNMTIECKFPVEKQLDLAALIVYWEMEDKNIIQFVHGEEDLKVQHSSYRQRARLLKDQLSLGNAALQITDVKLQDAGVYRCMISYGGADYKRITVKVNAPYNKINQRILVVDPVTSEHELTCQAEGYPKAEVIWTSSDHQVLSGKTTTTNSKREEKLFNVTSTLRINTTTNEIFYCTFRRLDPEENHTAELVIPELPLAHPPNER
Put plainly: BLI (Octet), VNAR-hFc with hPD-L1-His, Ni-NTA sensor; at 50 nM; at a concentration of 50 nM.

For experiment [6], the target named is T6, human PD-L1-His. Briefly: BLI (Octet), VNAR-hFc with hPD-L1-His, Ni-NTA sensor; at 100 nM; at a concentration of 100 nM (printed '100 nm'). (BLI is a label-free optical method that tracks binding on a fibre tip over time.)
The target in experiment [7] is T7, human PD-L1 on MDA-MB-231 cells (human, UniProt Q9NZQ7 19-290).
T7 construct: whole, on cells; also called native PD-L1; human antigen
T7 sequence (Q9NZQ7 19-290): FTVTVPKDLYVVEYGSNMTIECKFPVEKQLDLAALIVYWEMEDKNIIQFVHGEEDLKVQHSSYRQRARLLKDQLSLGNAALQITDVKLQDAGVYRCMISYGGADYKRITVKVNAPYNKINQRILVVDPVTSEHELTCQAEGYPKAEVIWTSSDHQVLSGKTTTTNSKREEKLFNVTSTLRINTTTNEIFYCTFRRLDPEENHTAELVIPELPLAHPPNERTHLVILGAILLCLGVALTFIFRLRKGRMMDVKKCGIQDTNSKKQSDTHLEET
Put plainly: flow cytometry on MDA-MB-231 cells (column 'Human').

Experiment [8] has as its target T6, human PD-L1-His. Put plainly: monoclonal phage ELISA on coated antigen, detected with anti-M13-HRP. How it is done: as §1
For a further experiment, the target named is T8, human PD-L1-hFc (human, UniProt Q9NZQ7 19-238).
T8 construct: also called hPD-L1 hFc-tag format; not shown: human Fc tag (hFc)
T8 sequence (Q9NZQ7 19-238 limits assumed): as the sequence (Q9NZQ7 19-238 limits assumed) above
The description is as above. As for the experimental part:
as §1

For experiment [9], the target named is T9, human PD-L1 (hPD-L1) protein (human, UniProt Q9NZQ7 19-238).
T9 construct: also called hPD-L1 ECD
T9 sequence (Q9NZQ7 19-238 limits assumed): as above
Briefly: BLI (Octet), PD-L1 protein loaded on a Ni-NTA biosensor, VNAR binding step.

The Kd is the constant that tells how readily two partners part at equilibrium. Read a high Kd as a looser complex.

T1 sequence (Q9EP73 19-237 limits assumed): as the sequence (Q9EP73 19-237 limits assumed) above

B1: Shark VNAR A9 (VNAR)
VNAR: ARVDQTPQTITKETGESLTINCVLRDTNYALGSTYWYRKKLGSTNEESISKGGRYVETVNSGSKSFSLRINDLTVEDSGTYRCKNTSPWLTYSPWTVSGQTSYGGGTVVTVN
In the case of B1, in the experiment with mouse PD-L1-His [1], the binding result is on record as “binds”.

B2: Shark VNAR B2 (VNAR)
VNAR: ARVDQTPRSVTKETGESLTINCVLRDSSYALGSTYWYRKKSGSTNEESISKGGRYVETVNSGSKSFSLRINDLTVEDSGTYRCKYTSRLRREGPLSWDGNTVYGGGTVVTVN
notes: Shark VNAR single-domain antibody from the semi-synthetic 18AA CDR3 library; also called B2 nanobody; B2 clone
On to B2, for which the binding result with human B7-H3 is given as “no binding”; in experiment [2], “binds”; with mouse PD-L1-His [3], “binds”; with mouse PD-L1-hFc, “binds”.

B3: B2-His-flag (VNAR)
VNAR: ARVDQTPRSVTKETGESLTINCVLRDSSYALGSTYWYRKKSGSTNEESISKGGRYVETVNSGSKSFSLRINDLTVEDSGTYRCKYTSRLRREGPLSWDGNTVYGGGTVVTVN
notes: Soluble VNAR B2 with His and flag tags, used at 5 ug/ml in the peptide-scanning ELISA; also called nanobody B2 (peptide scanning); not shown: His tag and flag tag
As for B3, the binding result in experiment [4] is reported as “binds”.

B4: B2-hFc (Fc fusion)
chain: ARVDQTPRSVTKETGESLTINCVLRDSSYALGSTYWYRKKSGSTNEESISKGGRYVETVNSGSKSFSLRINDLTVEDSGTYRCKYTSRLRREGPLSWDGNTVYGGGTVVTVN
notes: also called B2 VNAR-hFc fusion protein; not shown: human Fc (hFc)
B4: the Kd was found to be 1.4 nM with human PD-L1-His [5] and 1.7 nM with human PD-L1-His [6].

B5: Shark VNAR A10 (VNAR)
VNAR: ARVDQTPRSVTKETGESLTINCVLRDTNYALGSTYWYRKKLGSTNEESISKGGRYVETVNSGSKSFSLRINDLTVEDSGTYRCKSTTPWNNLTSFTSERVTIYGGGTVVTVN
As for B5, the binding result with mouse PD-L1-His [1] is “binds”.

B6: Shark VNAR A7 (VNAR)
VNAR: ARVDQTPRSVTKETGESLTINCVLRDTSYALGSTYWYRKKLGSTNEESISKGGRYVETVNSGSKSFSLRINDLTVEDSGTYRCKMNQRYPCDNNSWWSLYCGTTVYGGGTVVTVN
For the molecule B6, in the experiment with mouse PD-L1-His [1], the binding result is listed as “binds”.

B7: Shark VNAR A6 (VNAR)
VNAR: ARVDQTPQTITKETGESLTINCVLRDTSYALGSTYWYRKKSGSTNEESISKGGRYVETVNSGSKSFSLRINDLRVEDSGTYRCKYSSSWQKATEGVWEAMTEYGGGTVVTVN
Turning to B7, the binding result with mouse PD-L1-His [1] is on record as “binds”.

B8: Shark VNAR D12 (VNAR)
VNAR: ARVDQTPRSVTKETGESLTINCVLRDTNYALGSTYWYRKKSGSTNEESISKGGRYVETVNSGSKSFSLRINDLTVEDSGTYRCKHQSSWRRQAPRVMEMQTLYGGGTVVTVN
As for B8, the binding result with mouse PD-L1-His [1] is listed as “binds”.

B9: Shark VNAR A11 (VNAR)
VNAR: ARVDQTPRSVTKETGESLTINCVLRDTSYALGSTYWYRKKSGSTNEESISKGGRYVETVNSGSKSFSLRINDLTVEDSGTYRCKFKSNTEFLNPLTVSMSTIYGGGTVVTVN
notes: Shark VNAR single-domain antibody
For the molecule B9, the binding result with mouse PD-L1-His [3] and with mouse PD-L1-hFc was “binds” in each case.

B10: A11-His-flag (VNAR)
VNAR: ARVDQTPRSVTKETGESLTINCVLRDTSYALGSTYWYRKKSGSTNEESISKGGRYVETVNSGSKSFSLRINDLTVEDSGTYRCKFKSNTEFLNPLTVSMSTIYGGGTVVTVN
notes: Soluble VNAR A11 with His and flag tags, used at 5 ug/ml in the peptide-scanning ELISA; also called nanobody A11 (peptide scanning); not shown: His tag and flag tag
On to B10, for which the binding result in experiment [4] was “no binding (tested: 5 µg/ml)”.

B11: Shark VNAR A3 (VNAR)
VNAR: ARVDQTPQTITKETGESLTINCVLRDSNYALGSTYWYRKKSGSTNEESISKGGRYVETVNSGSKSFSLRINDLTVEDSGTYRCKTQKAIPCNMNGYVCGVTIYGGGTVVTVN
On to B11, for which the binding result in the experiment with mouse PD-L1-His [1] is “binds”.

B12: Shark VNAR F5 (VNAR)
VNAR: ARVDQTPRSVTKETGESLTINCVLRDTNYALGSTYWYRKKLGSTNEESISKGGRYVETVNSGSKSFSLRINDLTVEDSGTYRCKNLGHPMYIAGAICRPLPIYGGGTVVTVN
notes: as for B9
B12: the binding result (in experiment [7]; in experiment [2]; in the experiment with mouse PD-L1-His [3]; with mouse PD-L1-hFc; with human PD-L1-His [8]; with human PD-L1-hFc) was “binds” each time.

B13: F5-His-flag (VNAR)
VNAR: ARVDQTPRSVTKETGESLTINCVLRDTNYALGSTYWYRKKLGSTNEESISKGGRYVETVNSGSKSFSLRINDLTVEDSGTYRCKNLGHPMYIAGAICRPLPIYGGGTVVTVN
notes: Soluble VNAR F5 with His and flag tags, used at 5 ug/ml in the peptide-scanning ELISA; also called nanobody F5 (peptide scanning); not shown: His tag and flag tag
Consider B13, for which the binding result in [4] was “binds”.

B14: F5-hFc (Fc fusion)
chain: ARVDQTPRSVTKETGESLTINCVLRDTNYALGSTYWYRKKLGSTNEESISKGGRYVETVNSGSKSFSLRINDLTVEDSGTYRCKNLGHPMYIAGAICRPLPIYGGGTVVTVN
notes: VNAR-hFc fusion used on the Octet; also called F5 VNAR-hFc fusion protein; not shown: human Fc (hFc)
As to B14, the binding result in experiment [9] is recorded as “binds”.

B15: Shark VNAR A2 (VNAR)
VNAR: ARVDQTPRSVTKETGESLTINCVLRDTSYALGSTYWYRKKLGSTNEESISKGGRYVETVNSGSKTFSLRINDLTVEDSGTYRCKVQTTWSYLSPYKIEFATVYGGGTVVTVN
On to B15, for which the binding result with mouse PD-L1-His [1] is reported as “binds”.

B16: Shark VNAR A1 (VNAR)
VNAR: ARVDQTPRSVTKETGESLTINCVLRDTNYALGSTYWYRKKSGSTNEESISKGGRYVETVNSGSKSFSLRINDLTVEDSGTYRCKTSSKPLLVSHNVWSAWTEYGGGTVVTVN
Consider B16, for which the binding result in the experiment with mouse PD-L1-His [1] was “binds”.

B17: Shark VNAR C4 (VNAR)
VNAR: ARVDQTPRSVTKETGESLTINCVLRDTNYALGSTYWYRKKSGSTNEESISKGGRYVETVNSGSKSFSLRINDLTVEDSGTYRCKQSASLWIPNLLRWVPVISYGGGTVVTVN
For the molecule B17, in the experiment with mouse PD-L1-His [1], the binding result was “binds”.

These data come from US20240270851A1 (US Dept. of Health and Human Services, published 2024).
